Test results from publication PMC7943604.

How the values were obtained:
[1] = target: COPY^o2 (Atto532-stathmin-Atto647N); experiment: stopped-flow fluorescence (sensitized emission of the FRET sensor); COPY^o2 or phosphorylated COPY^o2 constant at 200 nM, tubulin titrated; dissociation at 200 nM COPY^o2 and 4 µM tubulin by displacement with 60 µM unlabeled stathmin; 25 °C; 80 mM PIPES pH 6.8, 75 mM KCl, 2 mM MgCl2, 20 mM β-mercaptoethanol, 60 µM GTP
phosphorylated COPY^o2 = experiment: as above

Work on “tubulin (αβ-heterodimer) (from UniProt P02550 1-451; P02554 1-445) (complex)” yielded a KD, high affinity site [1] of 0.03 µM, a KD, low-affinity site [1] of 2 µM and a koff, high affinity site [1] of 0.048 s⁻¹. It also gave a koff, low-affinity site [1] of 1.86 s⁻¹, a kon, high affinity site [1] of 1.6e+06 M⁻¹ s⁻¹ and a kon, low-affinity site [1] of 900000 M⁻¹ s⁻¹. It also gave a stoichiometry N [1] of 2, a KD, high affinity site (phosphorylated COPY^o2) of 610 µM and a KD, low-affinity site (phosphorylated COPY^o2) of 12 µM. It also gave a koff, high affinity site (phosphorylated COPY^o2) of 8 s⁻¹, a koff, low-affinity site (phosphorylated COPY^o2) of 2.3 s⁻¹ and a kon, high affinity site (phosphorylated COPY^o2) of 12800 M⁻¹ s⁻¹. It also gave a kon, low-affinity site (phosphorylated COPY^o2) of 170000 M⁻¹ s⁻¹.
